# In patent US20180230213A1 (AVEO PHARMACEUTICALS, published 2018):
# T1: recombinant human Notch3 extracellular domain (containing EGF like domains 1-11) Fc fusion protein (human, UniProt Q9UM47 40-467)
# T1 construct: domain: EGF like domains 1-11; also called rhNotch3-Fc; rhNotch3
# T1 sequence (looked up): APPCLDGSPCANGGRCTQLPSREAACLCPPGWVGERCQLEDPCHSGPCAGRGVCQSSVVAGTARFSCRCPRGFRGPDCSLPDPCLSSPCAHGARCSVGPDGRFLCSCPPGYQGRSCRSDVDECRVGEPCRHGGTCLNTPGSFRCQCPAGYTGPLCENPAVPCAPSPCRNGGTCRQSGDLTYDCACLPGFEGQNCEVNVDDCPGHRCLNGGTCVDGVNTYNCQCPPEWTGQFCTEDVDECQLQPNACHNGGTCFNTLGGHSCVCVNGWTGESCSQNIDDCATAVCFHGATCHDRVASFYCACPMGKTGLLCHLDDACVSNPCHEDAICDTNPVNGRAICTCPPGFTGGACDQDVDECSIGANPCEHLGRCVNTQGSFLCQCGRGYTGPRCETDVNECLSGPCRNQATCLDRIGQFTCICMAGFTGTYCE
# B1: antibody 4F11 (murine monoclonal anti-human Notch3) (antibody, mouse IgG1, kappa, V domains shown)
# VH: EVQLVESGGGLVKPGGSLKLSCAASGFAFSSYDMSWVRQTPEKRLEWVAYISRGGGSTYYPDTVKGRFTISRDNAKNTLYLQMSSLKSEDTAMYYCGRHATTAYWYFDVWGAGTTVTVSS
# VL: DVVMTQTPLSLPVSLGDQASISCRSSQSLVHTNGNTYLHWYLQKPGQSPKLLIYKVSNRFSGVPDRFSGSGSGTDFTLKISRVEAEDLGVYFCSQSTHVPWTFGGGTKLEIKR
# notes: Mouse IgG1 kappa purified from hybridoma; also called mu4F11; murine 4F11
# Key:
# [1] = target: T2, human Notch3 on the cell surface (human, UniProt Q9UM47 40-2321); assay: FACS on CHO N3 cells (human Notch3), 4 C, one site binding fit
# T2 construct: whole, on cells; the cells carry the full length protein; also called cell surface human Notch3; hNotch3
# Procedure: (§1) Binding to cell surface human Notch3 by the antibody 4F11 was measured at 4° C., using Fluorescence Activated Cell Sorting (FACS). CHO N3 (Flp-In-CHO cells (Invitrogen) stably transfected with human Notch3), HCC2429 cells, and RL-952 cells expressing human Notch3 were washed once with PBS containing calcium chloride and magnesium chloride (Invitrogen) and harvested using cell dissociation buffer (Invitrogen). Cells were washed a second time with PBS and resuspended in FACS buffer (PBS with 0.5% BSA (Sigma-Aldrich)) for a final cell concentration of 250,000 cells per well into a 96-well v-bottom plate. Purified antibodies were diluted in FACS buffer over a concentration range of 100 nM to 0.1 nM. Cells were then incubated at 4° C. with […] of antibody for one hour, washed with FACS buffer twice, and resuspended in […] of goat-anti mouse PE-conjugated antibody (Jackson Immuno Research). Cells were incubated at 4° C. for 30 minutes in the dark, washed once with FACS buffer, and then analyzed using a Beckman Coulter Cytomics FC 500 instrument. The geometric mean of the florescent intensity was then calculated for each antibody concentration. These values were then entered into Prism software (GraphPad, La Jolla, Calif.) and used to generate a binding curve by plotting geometric mean versus antibody concentration. […]
# [2] = target: T3, human Notch1 expressed on the surface of CHO cells (human, UniProt P46531 19-2555); assay: electrochemiluminescence (Meso Scale Discovery) on transfected CHO cells
# T3 construct: whole, on cells
# Procedure: (§2) To determine specificity of binding to cell surface Notch proteins, antibody 4F11 was tested for binding to human Notch1, human Notch2, human Notch3 and human Notch4 expressed on the surface of CHO cells using electrochemiluminescence (Meso Scale Discovery). A CHO line lacking any human Notch protein was also produced for use as a negative control. Cells were grown under standard conditions (37° C., F12+10% FBS). For binding studies, cells were washed in PBS containing calcium and magnesium, and removed from the plate by treatment with Cell Dissociation Buffer (Life Technologies) for ten minutes at 37° C.
# (§3) Cells were seeded at a density of 30,000 cells per well, in hybridoma media, instandard 96-well binding plates (Meso Scale Discovery, Cat. No. L15XA-6). Cells were incubated for one hour at 37° C. Antibodies or control IgG were added at 5 μg/ml, in 50 μl hybridoma media, and incubated for one hour at 37° C. The plates were washed twice with PBS containing 3% BSA. Binding of the antibodies to cell surface was detected using 2 μg/ml of MSD anti-mouse IgG secondary antibody (Meso Scale Discovery, Cat. No. R32AC-1) for one hour at 4° C. Plates were washed twice with PBS containing 3% BSA, and 150 μl of read buffer (Meso Scale Discovery Cat. No. R92TC-1) was added. The plates were analyzed on a Sector Imager 2400 instrument (Meso Scale Discovery).
# [3] = target: T4, human Notch4 expressed on the surface of CHO cells (human, UniProt Q99466 24-2003); assay: as above
# T4 construct: whole, on cells
# Procedure: as §2, §3
# [4] = target: T5, human Notch2 expressed on the surface of CHO cells (human, UniProt Q04721 26-2471); assay: as above
# T5 construct: whole, on cells
# Procedure: as §2, §3
# [5] = target: T2, human Notch3 on the cell surface; assay: FACS on RL-952 cells (human Notch3), 4 C, one site binding fit
# Procedure: as §1
# [6] = target: T1, recombinant human Notch3 extracellular …; assay: SPR Biacore T100, 4F11 captured by anti-mouse IgG, rhNotch3-Fc analyte, 37 C
# Procedure: The binding affinity and kinetics of binding of antibody 4F11 to recombinant human Notch3 extracellular domain (containing EGF like domains 1-11) Fc fusion protein (rhNotch3-Fc (R&D Systems, Inc., Minneapolis, Minn.)) were measured by surface plasmon resonance using a Biacore® T100 instrument (GE Healthcare, Piscataway, N.J.).
# Rabbit anti-mouse IgGs (GE Healthcare) were immobilized on carboxymethylated dextran CM4 sensor chips (GE Healthcare) by amine coupling, according to a standard protocol. Analyses were performed at 25° C. and 37° C. using PBS containing 0.05% surfactant P20 as running buffer. The antibody was captured in individual flow cells at a flow rate of 10 μl/minute. Injection time was varied for each antibody to yield an Rmax between 30 and 60 resonance units (RU). Buffer or rhNotch3-Fc diluted in running buffer was injected sequentially over a reference surface (no antibody captured) and the active surface (antibody to be tested) for 240 seconds at 60 μl/minute. The dissociation phase was monitored for up to 1500 seconds. The surface was then regenerated with two 60-second injections of 10 mM Glycine-HCl, pH 2.25, at a flow rate of 30 μl/minute. The rhNotch3-Fc concentration range tested was 100 nM to 3.125 nM (2 fold dilution).
# Kinetic parameters were determined using the kinetic function of the BIAevaluation software (GE Healthcare) with double reference subtraction. Kinetic parameters for the antibody, kₐ (association rate constant), kd (dissociation rate constant) and KD (equilibrium dissociation constant) were determined.
# [7] = target: T2, human Notch3 on the cell surface; assay: cell-based or functional assay
# [8] = target: T2, human Notch3 on the cell surface; assay: FACS on HCC2429 cells (human Notch3), 4 C, one site binding fit
# Procedure: as §1
# T3 sequence (P46531 19-2555): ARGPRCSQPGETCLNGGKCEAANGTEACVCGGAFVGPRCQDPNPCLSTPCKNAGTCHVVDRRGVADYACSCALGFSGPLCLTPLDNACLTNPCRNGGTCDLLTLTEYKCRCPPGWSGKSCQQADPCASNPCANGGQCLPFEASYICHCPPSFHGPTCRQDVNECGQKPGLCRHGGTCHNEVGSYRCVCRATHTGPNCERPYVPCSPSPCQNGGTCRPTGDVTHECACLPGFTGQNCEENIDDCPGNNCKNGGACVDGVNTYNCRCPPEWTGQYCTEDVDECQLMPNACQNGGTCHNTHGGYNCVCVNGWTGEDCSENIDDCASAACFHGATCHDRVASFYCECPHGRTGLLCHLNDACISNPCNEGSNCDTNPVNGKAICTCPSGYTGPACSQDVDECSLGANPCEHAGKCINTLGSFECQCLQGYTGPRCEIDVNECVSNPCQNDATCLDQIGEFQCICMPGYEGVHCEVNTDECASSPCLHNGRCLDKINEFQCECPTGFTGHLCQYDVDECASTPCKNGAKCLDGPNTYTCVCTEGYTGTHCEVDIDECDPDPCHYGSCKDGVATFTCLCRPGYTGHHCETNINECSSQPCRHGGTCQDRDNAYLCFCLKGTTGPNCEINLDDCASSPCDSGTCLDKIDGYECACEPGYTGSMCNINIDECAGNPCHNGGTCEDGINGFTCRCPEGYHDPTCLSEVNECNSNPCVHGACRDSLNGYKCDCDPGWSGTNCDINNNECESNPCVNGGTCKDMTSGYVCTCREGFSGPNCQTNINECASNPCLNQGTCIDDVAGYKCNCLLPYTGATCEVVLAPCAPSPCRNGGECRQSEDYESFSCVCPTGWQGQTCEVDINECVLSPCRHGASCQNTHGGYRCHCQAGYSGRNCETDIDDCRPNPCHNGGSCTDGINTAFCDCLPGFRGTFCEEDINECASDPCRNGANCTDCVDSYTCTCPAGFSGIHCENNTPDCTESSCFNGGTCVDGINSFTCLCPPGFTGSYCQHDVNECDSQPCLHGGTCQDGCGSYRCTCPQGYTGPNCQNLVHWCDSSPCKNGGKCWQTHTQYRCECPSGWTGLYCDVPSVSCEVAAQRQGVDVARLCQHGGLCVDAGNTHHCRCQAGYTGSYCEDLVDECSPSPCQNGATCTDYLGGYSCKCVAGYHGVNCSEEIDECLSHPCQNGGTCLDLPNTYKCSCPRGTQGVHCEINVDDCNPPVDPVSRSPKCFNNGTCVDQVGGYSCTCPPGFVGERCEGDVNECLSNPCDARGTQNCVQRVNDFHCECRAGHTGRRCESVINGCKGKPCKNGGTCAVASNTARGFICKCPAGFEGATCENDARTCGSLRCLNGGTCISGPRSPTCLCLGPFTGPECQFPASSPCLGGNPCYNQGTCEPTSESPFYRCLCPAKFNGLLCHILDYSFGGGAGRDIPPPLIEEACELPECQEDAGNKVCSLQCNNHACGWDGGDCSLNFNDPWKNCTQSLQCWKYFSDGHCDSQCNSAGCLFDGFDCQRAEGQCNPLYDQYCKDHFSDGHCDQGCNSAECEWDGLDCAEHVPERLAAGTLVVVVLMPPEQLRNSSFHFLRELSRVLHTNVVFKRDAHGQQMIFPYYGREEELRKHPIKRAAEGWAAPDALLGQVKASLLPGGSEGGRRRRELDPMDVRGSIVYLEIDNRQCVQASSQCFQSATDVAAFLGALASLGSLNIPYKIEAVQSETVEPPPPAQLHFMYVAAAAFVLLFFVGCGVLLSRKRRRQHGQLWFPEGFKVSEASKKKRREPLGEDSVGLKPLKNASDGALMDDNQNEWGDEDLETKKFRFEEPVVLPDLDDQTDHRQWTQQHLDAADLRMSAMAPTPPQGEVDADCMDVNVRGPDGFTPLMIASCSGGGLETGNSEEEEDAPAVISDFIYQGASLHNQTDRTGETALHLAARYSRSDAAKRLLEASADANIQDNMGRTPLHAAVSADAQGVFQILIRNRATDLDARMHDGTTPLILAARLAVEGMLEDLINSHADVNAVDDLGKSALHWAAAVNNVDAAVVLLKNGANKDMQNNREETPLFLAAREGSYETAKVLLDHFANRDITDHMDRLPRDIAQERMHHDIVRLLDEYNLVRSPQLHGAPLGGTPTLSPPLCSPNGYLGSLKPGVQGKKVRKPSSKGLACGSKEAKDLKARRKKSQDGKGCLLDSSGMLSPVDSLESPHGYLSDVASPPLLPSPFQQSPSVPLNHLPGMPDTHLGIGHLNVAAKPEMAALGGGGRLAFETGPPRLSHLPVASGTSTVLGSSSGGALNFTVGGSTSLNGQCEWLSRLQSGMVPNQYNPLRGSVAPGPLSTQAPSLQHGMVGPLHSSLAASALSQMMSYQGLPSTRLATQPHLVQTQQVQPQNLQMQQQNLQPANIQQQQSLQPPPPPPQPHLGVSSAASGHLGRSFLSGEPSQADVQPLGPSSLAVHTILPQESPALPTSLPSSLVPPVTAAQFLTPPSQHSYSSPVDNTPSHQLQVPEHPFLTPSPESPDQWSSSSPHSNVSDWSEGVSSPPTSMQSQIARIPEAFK
# T5 sequence (Q04721 26-2471): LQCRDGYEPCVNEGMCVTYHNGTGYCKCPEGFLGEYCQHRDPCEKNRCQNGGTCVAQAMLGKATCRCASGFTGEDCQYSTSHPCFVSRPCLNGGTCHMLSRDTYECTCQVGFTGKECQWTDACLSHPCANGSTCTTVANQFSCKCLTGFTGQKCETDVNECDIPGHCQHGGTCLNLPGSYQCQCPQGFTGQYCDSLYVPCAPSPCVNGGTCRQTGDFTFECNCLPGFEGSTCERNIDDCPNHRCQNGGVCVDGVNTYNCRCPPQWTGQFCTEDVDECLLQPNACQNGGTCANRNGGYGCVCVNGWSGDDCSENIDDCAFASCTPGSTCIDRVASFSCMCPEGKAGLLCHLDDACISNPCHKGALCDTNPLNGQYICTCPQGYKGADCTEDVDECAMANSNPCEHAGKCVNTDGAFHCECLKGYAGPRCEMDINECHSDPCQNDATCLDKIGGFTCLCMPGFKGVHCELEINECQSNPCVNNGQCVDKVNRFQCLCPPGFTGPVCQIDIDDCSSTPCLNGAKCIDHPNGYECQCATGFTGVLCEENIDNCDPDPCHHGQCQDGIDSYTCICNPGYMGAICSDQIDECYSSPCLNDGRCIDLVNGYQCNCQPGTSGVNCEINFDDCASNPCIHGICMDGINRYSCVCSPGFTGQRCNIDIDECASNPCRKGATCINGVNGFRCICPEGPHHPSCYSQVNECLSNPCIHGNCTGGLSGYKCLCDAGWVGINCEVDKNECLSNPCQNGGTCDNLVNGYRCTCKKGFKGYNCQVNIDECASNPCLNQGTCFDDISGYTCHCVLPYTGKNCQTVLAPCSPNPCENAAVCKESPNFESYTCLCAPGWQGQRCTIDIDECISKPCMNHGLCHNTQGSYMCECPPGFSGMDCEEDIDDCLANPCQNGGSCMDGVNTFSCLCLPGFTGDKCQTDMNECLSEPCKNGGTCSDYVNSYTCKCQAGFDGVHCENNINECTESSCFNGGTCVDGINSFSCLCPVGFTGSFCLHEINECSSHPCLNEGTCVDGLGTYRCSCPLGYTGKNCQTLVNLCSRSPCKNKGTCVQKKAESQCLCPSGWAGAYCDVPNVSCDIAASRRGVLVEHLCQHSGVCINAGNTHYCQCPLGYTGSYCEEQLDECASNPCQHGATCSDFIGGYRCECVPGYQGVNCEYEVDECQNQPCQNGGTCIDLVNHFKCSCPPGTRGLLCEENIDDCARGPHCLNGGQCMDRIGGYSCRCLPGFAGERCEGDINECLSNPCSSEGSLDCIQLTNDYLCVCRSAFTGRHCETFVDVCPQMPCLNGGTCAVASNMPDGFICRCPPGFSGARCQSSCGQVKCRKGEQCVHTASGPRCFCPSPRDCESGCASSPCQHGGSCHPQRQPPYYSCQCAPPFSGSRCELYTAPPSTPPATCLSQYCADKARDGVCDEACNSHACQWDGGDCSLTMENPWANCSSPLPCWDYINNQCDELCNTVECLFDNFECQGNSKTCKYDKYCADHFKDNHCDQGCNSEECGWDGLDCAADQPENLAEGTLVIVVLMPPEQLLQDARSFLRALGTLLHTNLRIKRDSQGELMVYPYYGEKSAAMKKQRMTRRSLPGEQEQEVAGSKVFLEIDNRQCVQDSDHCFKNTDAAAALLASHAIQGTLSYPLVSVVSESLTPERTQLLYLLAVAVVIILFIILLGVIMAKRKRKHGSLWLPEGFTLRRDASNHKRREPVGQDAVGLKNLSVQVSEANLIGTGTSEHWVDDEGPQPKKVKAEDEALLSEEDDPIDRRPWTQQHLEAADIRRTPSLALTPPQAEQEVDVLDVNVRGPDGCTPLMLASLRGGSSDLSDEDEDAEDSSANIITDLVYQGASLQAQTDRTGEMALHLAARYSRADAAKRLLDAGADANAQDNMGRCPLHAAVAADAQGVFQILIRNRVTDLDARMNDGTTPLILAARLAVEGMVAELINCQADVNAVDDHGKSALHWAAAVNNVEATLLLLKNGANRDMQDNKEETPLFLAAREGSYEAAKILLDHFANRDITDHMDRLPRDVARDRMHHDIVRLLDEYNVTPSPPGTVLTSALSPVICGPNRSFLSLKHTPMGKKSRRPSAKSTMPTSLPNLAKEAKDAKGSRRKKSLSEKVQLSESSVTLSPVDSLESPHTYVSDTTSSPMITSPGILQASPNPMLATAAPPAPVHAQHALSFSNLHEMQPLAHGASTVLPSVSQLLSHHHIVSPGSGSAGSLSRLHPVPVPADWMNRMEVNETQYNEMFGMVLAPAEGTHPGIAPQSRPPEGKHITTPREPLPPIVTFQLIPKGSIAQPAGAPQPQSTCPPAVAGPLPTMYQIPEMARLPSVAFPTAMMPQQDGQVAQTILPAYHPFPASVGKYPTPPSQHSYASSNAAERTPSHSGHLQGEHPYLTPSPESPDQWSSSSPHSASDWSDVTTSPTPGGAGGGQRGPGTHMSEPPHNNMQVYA
binder,measurement,setting,value
B1,Kd,[1],0.36 nM
same,binding result,[2],no binding (tested: 5 µg/ml)
same,binding result,[3],no binding (tested: 5 µg/ml)
same,binding result,[4],no binding (tested: 5 µg/ml)
same,Kd,[5],0.963 nM
same,Kd,[6],0.78 nM
same,koff,[6],5.7e-05 s⁻¹
same,kon,[6],75000 M⁻¹ s⁻¹
same,"EC50, inhibition of Notch3-dependent reporter activity stimulated by DLL1",[7],6 nM
same,"EC50, inhibition of Notch3-dependent reporter activity stimulated by DLL4",[7],4.7 nM
same,"EC50, inhibition of Notch3-dependent reporter activity stimulated by Jag1",[7],2.6 nM
same,"EC50, inhibition of Notch3-dependent reporter activity stimulated by Jag2",[7],0.4 nM
same,Kd,[8],2.58 nM
